What is called stoichiometry N is the number of molecules, sites or subunits per partner or assembly.

For 7 substances, stoichiometry N results are on record in article PMC4436786.

Several values for one entry are separate records, joined by “and”; a condition that tells them apart may be missing. Equal values may be shown once.

Assay [1] deals with AtSfh5 nodulin (soluble, recombinant) (Arabidopsis thaliana). The assay is described as follows: SEC. Background: In gel filtration, larger molecules generally elute earlier.
The target of assay [2] is AtSfh8 nodulin (soluble, recombinant) (Arabidopsis thaliana). The assay is described as follows: SEC.
The target in assay [3] is His-tagged AtSfh1 nodulin (recombinant, solubilized in 8 M urea) (Arabidopsis thaliana). The assay is described as follows: SDS-PAGE.
The target in assay [4] is His-tagged AtSfh3 nodulin (soluble, recombinant) (Arabidopsis thaliana). The assay is described as follows: SEC.
In assay [5] the target is mRFP-AtSfh1 nodulin (WT) (Arabidopsis thaliana). The assay is described as follows: SEC.
Assay [6] concerns the target mRFP-AtSfh1^E485P,Q534P nodulin (Arabidopsis thaliana). The assay is described as follows: SEC.
The target of assay [7] is myc-tagged AtSfh1 nodulin (Arabidopsis thaliana). Description: SEC.

Chain of AtSfh5 nodulin (soluble, recombinant) (domain or fragment) (Q8GXC6 whole entry, the tested form may be a part): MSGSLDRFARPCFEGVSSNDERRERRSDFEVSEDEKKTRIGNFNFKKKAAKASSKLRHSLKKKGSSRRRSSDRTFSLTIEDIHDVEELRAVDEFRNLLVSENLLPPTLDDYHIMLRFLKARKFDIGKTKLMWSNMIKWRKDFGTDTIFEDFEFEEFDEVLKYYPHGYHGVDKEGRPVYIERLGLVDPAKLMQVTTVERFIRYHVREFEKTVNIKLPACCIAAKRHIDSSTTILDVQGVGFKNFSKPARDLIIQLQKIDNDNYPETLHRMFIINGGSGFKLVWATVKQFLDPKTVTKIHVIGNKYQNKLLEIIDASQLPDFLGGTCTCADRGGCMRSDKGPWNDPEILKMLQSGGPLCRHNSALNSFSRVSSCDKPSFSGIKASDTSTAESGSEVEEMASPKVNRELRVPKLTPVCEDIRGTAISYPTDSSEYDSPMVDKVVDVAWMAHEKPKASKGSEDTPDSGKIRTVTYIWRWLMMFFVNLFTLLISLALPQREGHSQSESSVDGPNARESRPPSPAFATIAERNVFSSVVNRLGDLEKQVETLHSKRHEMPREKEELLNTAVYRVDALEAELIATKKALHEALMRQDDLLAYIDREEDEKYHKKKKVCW
Chain of His-tagged AtSfh3 nodulin (soluble, recombinant) (domain or fragment) (Q93ZE9 whole entry, the tested form may be a part): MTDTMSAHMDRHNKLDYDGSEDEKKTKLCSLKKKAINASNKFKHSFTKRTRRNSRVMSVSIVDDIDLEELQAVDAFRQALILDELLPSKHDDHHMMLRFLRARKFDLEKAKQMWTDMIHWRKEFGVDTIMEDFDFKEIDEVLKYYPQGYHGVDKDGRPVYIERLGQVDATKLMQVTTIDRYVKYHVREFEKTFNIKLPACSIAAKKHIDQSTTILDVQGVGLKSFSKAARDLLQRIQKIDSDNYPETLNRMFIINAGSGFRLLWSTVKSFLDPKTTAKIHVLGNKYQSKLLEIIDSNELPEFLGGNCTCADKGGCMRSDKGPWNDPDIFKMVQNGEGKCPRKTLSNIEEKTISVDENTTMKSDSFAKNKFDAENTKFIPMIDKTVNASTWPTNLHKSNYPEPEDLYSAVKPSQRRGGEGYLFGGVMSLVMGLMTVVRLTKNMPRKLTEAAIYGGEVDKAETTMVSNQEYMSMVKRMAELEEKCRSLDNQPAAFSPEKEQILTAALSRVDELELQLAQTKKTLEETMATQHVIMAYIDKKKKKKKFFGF
Chain of His-tagged AtSfh1 nodulin (recombinant, solubilized in 8 M urea) (domain or fragment) (F4JLE5 whole entry, the tested form may be a part): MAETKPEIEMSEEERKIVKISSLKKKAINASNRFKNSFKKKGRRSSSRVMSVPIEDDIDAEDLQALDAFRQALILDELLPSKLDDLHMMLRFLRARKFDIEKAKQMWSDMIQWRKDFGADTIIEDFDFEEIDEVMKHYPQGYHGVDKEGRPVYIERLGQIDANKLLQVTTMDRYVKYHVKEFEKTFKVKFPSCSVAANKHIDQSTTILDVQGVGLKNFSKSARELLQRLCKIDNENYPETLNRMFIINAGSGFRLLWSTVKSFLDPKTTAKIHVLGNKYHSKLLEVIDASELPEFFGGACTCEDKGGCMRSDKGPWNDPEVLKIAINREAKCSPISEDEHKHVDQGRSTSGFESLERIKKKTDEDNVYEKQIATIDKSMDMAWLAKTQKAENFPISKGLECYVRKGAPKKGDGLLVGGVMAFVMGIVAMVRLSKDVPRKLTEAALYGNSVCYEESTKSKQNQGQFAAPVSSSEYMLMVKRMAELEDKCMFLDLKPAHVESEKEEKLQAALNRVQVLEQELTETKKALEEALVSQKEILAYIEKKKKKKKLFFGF
Chain of AtSfh8 nodulin (soluble, recombinant) (domain or fragment) (F4IHJ0 whole entry, the tested form may be a part): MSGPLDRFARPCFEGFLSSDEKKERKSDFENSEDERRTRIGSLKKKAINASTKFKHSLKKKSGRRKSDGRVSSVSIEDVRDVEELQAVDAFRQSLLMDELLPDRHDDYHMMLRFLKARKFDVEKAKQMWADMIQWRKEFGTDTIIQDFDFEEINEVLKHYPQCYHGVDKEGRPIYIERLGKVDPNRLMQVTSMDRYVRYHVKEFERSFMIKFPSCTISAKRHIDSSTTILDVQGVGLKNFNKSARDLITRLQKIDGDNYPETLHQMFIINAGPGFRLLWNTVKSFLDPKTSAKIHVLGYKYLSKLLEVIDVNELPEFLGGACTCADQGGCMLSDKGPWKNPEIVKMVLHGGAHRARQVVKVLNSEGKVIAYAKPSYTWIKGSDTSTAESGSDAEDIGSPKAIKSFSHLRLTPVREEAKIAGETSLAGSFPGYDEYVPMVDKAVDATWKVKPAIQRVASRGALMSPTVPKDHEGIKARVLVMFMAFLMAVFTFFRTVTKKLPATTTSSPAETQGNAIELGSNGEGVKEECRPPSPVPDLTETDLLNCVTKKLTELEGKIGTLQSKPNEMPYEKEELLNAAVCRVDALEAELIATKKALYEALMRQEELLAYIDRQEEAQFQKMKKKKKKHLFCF

With “AtSfh5 nodulin (soluble, recombinant) (domain or fragment)”, the stoichiometry N in assay [1] is 6.
For the substance “AtSfh8 nodulin (soluble, recombinant) (domain or fragment)”, in assay [2], the stoichiometry N came to 6.
On to “His-tagged AtSfh1 nodulin (recombinant, solubilized in 8 M urea) (domain or fragment)”, for which, in assay [3], the stoichiometry N is 8.
“His-tagged AtSfh3 nodulin (soluble, recombinant) (domain or fragment)”: the stoichiometry N in assay [4] turned out to be 6.
Substance “mRFP-AtSfh1 nodulin (WT) (domain or fragment)” registered a stoichiometry N in assay [5] of 4.
In assay [6], “mRFP-AtSfh1^E485P,Q534P nodulin (domain or fragment)” displayed a stoichiometry N of 2.
As for “myc-tagged AtSfh1 nodulin (domain or fragment)”, the stoichiometry N in assay [7] was 6 and 8.
